{"source": "patent US20240350646A1", "about": "“METHODS AND COMPOSITIONS FOR DELIVERY TO AND ACROSS THE BLOOD BRAIN BARRIER” (NUtech Ventures, priority 2021, published 2024)", "key": {"[1]": {"assay": "K^trans DCE-MRI: brain region accumulation and retention of NPs", "format": "in vivo, C57BL/6J mice", "conditions": "for K^trans, corpus callosum (CC): 100 μL of 0.5 mM NP via tail vein", "method": "Both male and female young (6-8 weeks) C57BL/6J mice (Jackson Laboratory, Bar Harbor, ME) and middle aged (12 months) C57BL/6J and CX3CR1-GFP (Jackson Laboratory, Bar Harbor, ME) from a C57BL/6J background mice were used. Mice were housed in a 12 h/12 h day/night cycle with ad libitum access to standard mouse chow and water. All animal work was approved by and performed under the guidance of the University of Nebraska-Lincoln IACUC.\nIn vivo NP assessment consisted of dynamic contrast-enhanced (DCE)-MRI using a 9.4T MRI system (Varian) to compare targeting agent effect on the uptake as previously described (Miller et al., 2019, Scientific Reports, 9:16099). Briefly, mice were induced with about 2% isoflurane gas and maintained at a concentration sufficient to achieve 50 to 80 breaths per minute. Baseline T1 maps were generated using a gradient-echo sequence and the variable flip angle method with two angles, 10° and 30° (Deoni et al., 2003, Magn. Reson. Med., 49:515-26). Mice were injected with 100 μL of a 0.5 mM NP solution via tail vein catheter followed by 100 μL PBS to flush all remaining NP solution. A flip angle of 30° was used for all post-contrast scans, which occurred for 1 h following injection. TR was between 54 and 84 ms, TE between 2.73 and 4.24 ms, matrix size between 128×128 and 256×256, FOV between 20×20×10 mm^3 and 25×25×10 mm^3 depending on the experiment. NEX varied with matrix size to maintain temporal resolution, with 128×128, NEX=5 for all scans, with 256×256, NEX=4 for baseline and 1 for post-contrast scans.\nFollowing serial image acquisition, resulting in about 100 post-contrast scans per animal, R1, concentration, and K^trans mapping were performed using custom MATLAB script. R1 mapping was performed using the variable flip angle method based on the following equation (Deoni et al., 2005, Magn. Reson. Med., 53:237-41: […]\nwhere SSPGR is signal intensity, α is FA, E1 is […], and M0 is a proportionality factor related to longitudinal magnetization. E1 describes the linear relationship between the two signal intensity ratios, taking the slope, m, of that line enables calculation of T1 as:\nConcentration maps were then generated by comparison of baseline R1 maps with post-contrast R1 maps using the following equation: […]\nwhere C(t) is the concentration at time t, R1(t) is the post contrast R1-value at t, RT(t0) is baseline R1, and r1 is relaxivity of the contrast agent. K^trans, the contrast extravasation rate constant, mapping was then performed using a reference region (RR) model derived from the extended Tofts' model (Tofts et al., 1999, J. Magn. Reson. Imaging, 10:223-232):\nwhere CTOI and CRR are concentrations in the tissue of interest (TOI) and the RR, respectively, K^trans,TOI and K^trans, RR are K^trans in the TOI and RR, respectively, and ve,TOI and ve,RR are extravascular-extracellular volume fractions for the TOI and RR, respectively. Muscle tissue from within the FOV was used in all animals as the RR. MATLAB was used to execute a least squares curve fitting routine to calculate K^trans for each voxel in the brain."}, "claudin-1": {"target": "T1, claudin-1 (Mus musculus, UniProt O88551)", "T1 sequence (O88551 1-211)": "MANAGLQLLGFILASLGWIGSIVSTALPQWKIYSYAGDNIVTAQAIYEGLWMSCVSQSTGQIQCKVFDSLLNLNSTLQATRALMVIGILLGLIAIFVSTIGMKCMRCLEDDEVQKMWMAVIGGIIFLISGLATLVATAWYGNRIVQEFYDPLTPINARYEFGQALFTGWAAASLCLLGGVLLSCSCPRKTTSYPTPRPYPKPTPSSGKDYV", "conditions": "corpus callosum and hippocampus, in vivo", "experimental": "A fluorescence microscope (LSM800, Zeiss) was used to take the fluorescence image of mice brain. Mice were transcardially perfused after 2 h of MRI with 4% paraformaldehyde (PFA) in Dulbecco's phosphate-buffered saline (DPBS, Thermo Fisher Scientific, Waltham, MA). Brain tissue was collected, trimmed, and fixed in 4% buffered PFA for 24 h. The brains were moved into 30% sucrose in DPBS for 3 d at 4° C. for cryoprotection. The brains were then embedded in 2.6% carboxymethylcellulose (CMC, C4888, Sigma-Aldrich, St. Louis, MO), frozen on dry ice, and sliced coronally at a 15 μm thickness with cryotome (Leica Biosystems, Wetzlar, Germany). The brain slices were laid on poly-L-lysine coated microscope slides (Thermo Fisher Scientific) and dried overnight at RT. […]\nImages were acquired with confocal microscopy at 40× objective lens magnification. Quantitative image analysis was performed with ImageJ software on at least two randomly selected viewing fields for each region for each mouse. The fluorescence signal of claudin-1 was thresholded to only integrate the density above 20 to remove the background fluorescence. Gamma correction was performed only on the representative images after the immunofluorescence quantification with shadows value of 0, midtones value of 0.26, and highlights value of 100 for all CMYK channels with Adobe Photoshop."}, "[2]": {"conditions": "old (1-year-old) mice, listed as C1C2-NPs"}}}
{"substance": "C1C2-NP: PEG diacid coated ultrasmall Gd NP conjugated with C1C2 peptide SSVSQSTGQIQSKVDSLLNLNSTQATR (SEQ ID NO: 6); claudin-1 targeted (Ac-SSVSQSTGQIQSKVDSLLNLNSTQATR-NH2; also: conjugated to PEG diacid coated ultrasmall Gd nanoparticle)", "values": [{"measurement": "K^trans, cortex (CTX)", "setting": "[1]; old (1-year-old) mice", "result": 0.0148, "unit": "min⁻¹"}, {"measurement": "K^trans, hippocampus (HC)", "setting": "[1]; old (1-year-old) mice", "result": 0.0040, "unit": "min⁻¹"}, {"measurement": "K^trans, hypothalamus (HT)", "setting": "[1]; old (1-year-old) mice", "result": 0.0102, "unit": "min⁻¹"}, {"measurement": "K^trans, muscle", "setting": "[1]; old (1-year-old) mice", "result": 0.0057, "unit": "min⁻¹"}, {"measurement": "K^trans, corpus callosum (CC)", "setting": "[1]; old (1-year-old) mice", "result": 0.0058, "unit": "min⁻¹"}, {"measurement": "K^trans, corpus callosum (CC)", "setting": "[1]; [2]", "result": 0.0058, "unit": "min⁻¹"}, {"measurement": "K^trans, cortex (CTX)", "setting": "[1]; [2]", "result": 0.0145, "unit": "min⁻¹"}, {"measurement": "K^trans, hippocampus (HC)", "setting": "[1]; [2]", "result": 0.0040, "unit": "min⁻¹"}, {"measurement": "K^trans, hypothalamus (HT)", "setting": "[1]; [2]", "result": 0.0134, "unit": "min⁻¹"}, {"measurement": "K^trans, cortex (CTX)", "setting": "[1]; young mice", "result": 0.0022, "unit": "min⁻¹"}, {"measurement": "K^trans, hippocampus (HC)", "setting": "[1]; young mice", "result": 0.0019, "unit": "min⁻¹"}, {"measurement": "K^trans, hypothalamus (HT)", "setting": "[1]; young mice", "result": 0.0026, "unit": "min⁻¹"}, {"measurement": "K^trans, muscle", "setting": "[1]; young mice", "result": 0.0028, "unit": "min⁻¹"}, {"measurement": "K^trans, corpus callosum (CC)", "setting": "[1]; young mice", "result": 0.0019, "unit": "min⁻¹"}, {"measurement": "Localization relative to claudin-1 immunofluorescence staining", "setting": "claudin-1", "result": "co-localize"}]}
